Results from patent publication US20240366728A1, “Treatment of Diabetes Mellitus” (Carmot Therapeutics Inc., priority 2023, published 2024).

Molecular target: mouse GLP-1R (mouse) (UniProt O35659)
Test: cell-based or functional assay

Sequence of mouse GLP-1R (mouse) (O35659 22-463): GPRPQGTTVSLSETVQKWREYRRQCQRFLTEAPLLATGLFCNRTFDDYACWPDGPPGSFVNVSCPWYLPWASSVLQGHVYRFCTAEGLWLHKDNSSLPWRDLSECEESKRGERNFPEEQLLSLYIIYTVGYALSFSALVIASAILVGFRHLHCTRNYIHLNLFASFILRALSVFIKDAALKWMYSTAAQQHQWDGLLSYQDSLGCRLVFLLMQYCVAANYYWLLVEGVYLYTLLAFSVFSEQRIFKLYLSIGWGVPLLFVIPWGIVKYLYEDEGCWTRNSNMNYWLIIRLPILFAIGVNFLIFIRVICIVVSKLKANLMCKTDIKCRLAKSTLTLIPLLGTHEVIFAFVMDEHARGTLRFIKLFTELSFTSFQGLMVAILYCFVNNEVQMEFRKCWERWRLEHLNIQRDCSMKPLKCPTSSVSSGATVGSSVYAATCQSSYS

Row | cAMP accumulation EC50 | β-arrestin-2 recruitment | mGLP-1R cAMP (-alb) % Emax | mGLP-1R β-arrestin-2 % Emax | Substance
1 | 3 pM | 99% |  |  | Human GLP-1 (7-36) (from UniProt P01275 21-180) (ligand)
2 |  |  | 92% | 80.7% | Liraglutide (peptide)
